According to the supplement of paper PMC11865577:

How the values were obtained:
Assay in all cases: pull-down binding Z-score (relative to library population); higher = stronger binding
Conditions in all cases: RNA library: Library-2
[1] = tested on: TO-N3 (biotin conjugate)
In short: (§1)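 A heat-folded, dye-end-labelled (Cy5 or Cy3) RNA library (1 μg, phosphate/NaCl/KCl buffer) was exposed for 60 min at 25 °C to streptavidin beads holding 100 pmol of biotin-conjugated small molecule. RNA retained on the beads was eluted in hot SDS and hybridised to a DNA barcode microarray for 20 h at 55.5 °C. Binding scores were Z-scores against the library mean and standard deviation, calculated after subtracting beads alone and taking trimmed means of replicate probes.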

[2] = tested on: TO-3-N3-2 (biotin conjugate)
In short: as §1

[3] = tested on: TO-N3-2 (biotin conjugate)
In short: as §1

[4] = tested on: TO-3-N3 (biotin conjugate)
In short: as §1

UUACAGAUCUUUACCAGGAGUUUUCUGUGGUGUAGAUGCUGUAA [SHAPE_invivo_SARS-CoV-2_Motif_187]
pull-down binding Z-score [1]: -1.21 | pull-down binding Z-score [2]: -0.414 | pull-down binding Z-score [3]: -1 | pull-down binding Z-score [4]: -0.96

GACUUAUGAAAACUAUAGGUC
pull-down binding Z-score [1]: -0.299 | pull-down binding Z-score [2]: 0.00298 | pull-down binding Z-score [3]: -0.341 | pull-down binding Z-score [4]: -0.388

GGAGACAGGUGGUUUCUCAAUCGAUUUACCACAACUCU [SHAPE_invivo_SARS-CoV-2_Motif_209]
pull-down binding Z-score [1]: -0.19 | pull-down binding Z-score [2]: -0.326 | pull-down binding Z-score [3]: -0.516 | pull-down binding Z-score [4]: -0.078

GUCUUUCCAGGGGC [IAV_invivo_NP_5_Motif_23+IAV_invivo_NP_5_Motif_23]
pull-down binding Z-score [1]: -0.393 | pull-down binding Z-score [2]: -0.414 | pull-down binding Z-score [3]: -0.0606 | pull-down binding Z-score [4]: -0.313

GGAUGAGAGAACUCAUCC [IAV_invivo_NP_5_Motif_6+IAV_invivo_NP_5_Motif_6]
pull-down binding Z-score [1]: -0.724 | pull-down binding Z-score [2]: -0.323 | pull-down binding Z-score [3]: -0.939 | pull-down binding Z-score [4]: -0.302

GUGCCCAAAAUACGUCAGGAGUGC [IAV_invivo_HA_4_Motif_13+IAV_invivo_HA_4_Motif_13]
pull-down binding Z-score [1]: 0.0361 | pull-down binding Z-score [2]: 0.129 | pull-down binding Z-score [3]: 0.402 | pull-down binding Z-score [4]: -0.325

CCUGCCUGCCUGCCUG [r(CCUG)4]
pull-down binding Z-score [1]: 0.872 | pull-down binding Z-score [2]: 0.0557 | pull-down binding Z-score [3]: 0.703 | pull-down binding Z-score [4]: 0.588

GAAGAGGGAGCAAUUGUUGGCGAAAUUUCACCAUUGCCUUCUCUUC [IAV_invivo_NS1_NEP_8_Motif_10+IAV_invivo_NS1_NEP_8_Motif_10]
pull-down binding Z-score [1]: 0.0993 | pull-down binding Z-score [2]: 0.262 | pull-down binding Z-score [3]: -0.213 | pull-down binding Z-score [4]: -0.045

CCUUGUAGGUUUGUUACAGACACACCUAAAGG
pull-down binding Z-score [1]: -0.262 | pull-down binding Z-score [2]: -0.655 | pull-down binding Z-score [3]: -0.614 | pull-down binding Z-score [4]: -0.369

ACCUGCUCAGUAUGAACUUAAGCAUGGU
pull-down binding Z-score [1]: -0.561 | pull-down binding Z-score [2]: -0.184 | pull-down binding Z-score [3]: -0.0122 | pull-down binding Z-score [4]: -0.339

GUCUAAUCUCAAACCUUUUGAGAGAGAU
pull-down binding Z-score [1]: -1.19 | pull-down binding Z-score [2]: -0.695 | pull-down binding Z-score [3]: -1.07 | pull-down binding Z-score [4]: -0.801

UCUUUAAGGAAGGAAGUUCUGUUGAAUUAAAACACUUCUUCUUUGCUCAGGA [DMSMaPseq_invitro_SARS-CoV-2_Motif_265]
pull-down binding Z-score [1]: -1.23 | pull-down binding Z-score [2]: -0.179 | pull-down binding Z-score [3]: -0.953 | pull-down binding Z-score [4]: -0.904

GCGCAGCCAGAAACUGGCGGCGC [mismatch-AG]
pull-down binding Z-score [1]: 0.0293 | pull-down binding Z-score [2]: -0.168 | pull-down binding Z-score [3]: -0.228 | pull-down binding Z-score [4]: 0.114

CAAGGCUAUUGAUGGUGGUGUCACUCGUGACAUAGCAUCUACAGAUACUUG [SHAPE_invivo_SARS-CoV-2_Motif_176]
pull-down binding Z-score [1]: -0.424 | pull-down binding Z-score [2]: -0.243 | pull-down binding Z-score [3]: 0.281 | pull-down binding Z-score [4]: -0.614

UGUGAUUUUAAUAGCUUCUUAGGAGAAUGACA [SHAPE_invivo_SARS-CoV-2_Motif_573]
pull-down binding Z-score [1]: -0.641 | pull-down binding Z-score [2]: -0.182 | pull-down binding Z-score [3]: -0.333 | pull-down binding Z-score [4]: -0.571

GCCGGUAGCACACCUUGUAAUGGUGUUGAAGGU [SHAPE_invitro_SARS-CoV-2_Motif_416]
pull-down binding Z-score [1]: 0.452 | pull-down binding Z-score [2]: -0.509 | pull-down binding Z-score [3]: 0.332 | pull-down binding Z-score [4]: 0.478

UAGUACAUUUAUUAGUGAUGAAGUUGCGAGAGACUUGUCACUACAGUUUAAAAGACCAAUAAAUCCUACUG [SHAPE_invivo_SARS-CoV-2_Multi_21_ComplexLevel_1]
pull-down binding Z-score [1]: 0.716 | pull-down binding Z-score [2]: 0.312 | pull-down binding Z-score [3]: 0.172 | pull-down binding Z-score [4]: 0.561

GCGCUGCCAGAAACUGGCUUCAGCGC [bulge-UUC]
pull-down binding Z-score [1]: -0.796 | pull-down binding Z-score [2]: -0.243 | pull-down binding Z-score [3]: -0.304 | pull-down binding Z-score [4]: -0.611

GCUAUGCAAAUGGC
pull-down binding Z-score [1]: -0.847 | pull-down binding Z-score [2]: -0.527 | pull-down binding Z-score [3]: -0.948 | pull-down binding Z-score [4]: -0.537

UCGCUUGCAAGUUGGAUUCAGAAUGAGUUUAACAAGGCAUGCGA [IAV_invivo_PA_3_Motif_18+IAV_invivo_PA_3_Motif_18]
pull-down binding Z-score [1]: -0.603 | pull-down binding Z-score [2]: -0.227 | pull-down binding Z-score [3]: -0.838 | pull-down binding Z-score [4]: -0.53

GGAGAAGAACCC [IAV_invivo_PB2_1_Motif_3+IAV_invivo_PB2_1_Motif_3]
pull-down binding Z-score [1]: -0.17 | pull-down binding Z-score [2]: -0.0996 | pull-down binding Z-score [3]: 0.0437 | pull-down binding Z-score [4]: -0.254

CCUUCACACUCAAAGGCGGUGCACCAACAAAGGUUACUUUUGGUGAUGACACUGUGAUAGAAGUGCAAGG [SHAPE_invitro_SARS-CoV-2_Motif_51]
pull-down binding Z-score [1]: -0.605 | pull-down binding Z-score [2]: -0.155 | pull-down binding Z-score [3]: -0.0884 | pull-down binding Z-score [4]: -0.728

GGAUCCCGACUGGCGAGAGCCAGGUAACGAAUGGAUCC [MG-aptamer]
pull-down binding Z-score [1]: 0.277 | pull-down binding Z-score [2]: -0.524 | pull-down binding Z-score [3]: 2.4 | pull-down binding Z-score [4]: -0.00379

CUGGGAAACUGUUAAAAUUCAGUGGUCCCAG [IAV_invivo_PB2_1_Motif_27+IAV_invivo_PB2_1_Motif_27]
pull-down binding Z-score [1]: -0.972 | pull-down binding Z-score [2]: -0.0981 | pull-down binding Z-score [3]: -0.97 | pull-down binding Z-score [4]: -0.682

UGCUCAAGAAGCUUAUGAGCA [SHAPE_invivo_SARS-CoV-2_Motif_229]
pull-down binding Z-score [1]: -0.253 | pull-down binding Z-score [2]: 0.0729 | pull-down binding Z-score [3]: 0.0417 | pull-down binding Z-score [4]: -0.554

UCCAAACGCAAGCUUCGAUAAUUUUAAGUUUGUAUGUGA [SHAPE_invivo_SARS-CoV-2_Motif_125]
pull-down binding Z-score [1]: -0.589 | pull-down binding Z-score [2]: -0.0327 | pull-down binding Z-score [3]: -0.684 | pull-down binding Z-score [4]: -0.388

UGGGUUGGGUUGGGUUGGGUUGGGUUGGGUUGGGUUGGGU [G4_r(UGGGU)8]
pull-down binding Z-score [1]: 7.56 | pull-down binding Z-score [2]: 10.4 | pull-down binding Z-score [3]: 5.96 | pull-down binding Z-score [4]: 8.92

UCCUAUUACGGA [SHAPE_invivo_SARS-CoV-2_Motif_121]
pull-down binding Z-score [1]: -0.905 | pull-down binding Z-score [2]: -0.643 | pull-down binding Z-score [3]: -1.27 | pull-down binding Z-score [4]: -0.479

GCUUGUCACACCGUUUCUAUAGAUUAGCUAAUGAGUGUGCUCAAGU
pull-down binding Z-score [1]: -0.0415 | pull-down binding Z-score [2]: -0.356 | pull-down binding Z-score [3]: 0.588 | pull-down binding Z-score [4]: -0.601

CACAUGAAGGUAAAACAUUUUAUGUUUUACCUAAUGAUG
pull-down binding Z-score [1]: -0.73 | pull-down binding Z-score [2]: -0.743 | pull-down binding Z-score [3]: -0.256 | pull-down binding Z-score [4]: -0.659

CCCAGAUGAAGGCACAGCUGGAGUGGAGUCCGCUGUUCUGAGGGGAUUCCUCAUUCUGGG [IAV_invivo_PB2_1_Motif_33+IAV_invivo_PB2_1_Motif_33]
pull-down binding Z-score [1]: 0.671 | pull-down binding Z-score [2]: 0.166 | pull-down binding Z-score [3]: 1.54 | pull-down binding Z-score [4]: -0.0325

GGGUCGGUUGCUCACAAGUCCUGCCUGCCUGCCU [IAV_invivo_NP_5_Motif_15+IAV_invivo_NP_5_Motif_15]
pull-down binding Z-score [1]: 0.865 | pull-down binding Z-score [2]: 0.184 | pull-down binding Z-score [3]: 1.7 | pull-down binding Z-score [4]: 0.283
